Results taken from patent US20180094248A1 (ARIZONA BOARD OF REGENTS ON BEHALF OF ARIZONA STATE …, published 2018).

B1: Mixed Lineage Kinase Domain-Like (MLKL) (other)
chain: MENLKHIITLGQVIHKRCEEMKYCKKQCRRLGHRVLGLIKPLEMLQDQGKRSVPSEKLTTAMNRFKAALEEANGEIEKFSNRSNICRFLTASQDKILFKDVNRKLSDVWKELSLLLQVEQRMPVSPISQGASWAQEDQQDADEDRRAFQMLRRDNEKIEASLRRLEINMKEIKETLRQYLPPKCMQEIPQEQIKEIKKEQLSGSPWILLRENEVSTLYKGEYHRAPVAIKVFKKLQAGSIAIVRQTFNKEIKTMKKFESPNILRIFGICIDETVTPPQFSIVMEYCELGTLRELLDREKDLTLGKRMVLVLGAARGLYRLHHSEAPELHGKIRSSNFLVTQGYQVKLAGFELRKTQTSMSLGTTREKTDRVKSTAYLSPQELEDVFYQYDVKSEIYSFGIVLWEIATGDIPFQGCNSEKIRKLVAVKRQQEPLGEDCPSELREIIDECRAHDPSVRPSVDEILKKLSTFSK
notes: Endogenous protein in human brain extracts and HAP1 cells
B2: Receptor Interacting Protein Kinase-3 (RIPK3) (enzyme, human, UniProt Q9Y572 1-518, looked up)
chain: MSCVKLWPSGAPAPLVSIEELENQELVGKGGFGTVFRAQHRKWGYDVAVKIVNSKAISREVKAMASLDNEFVLRLEGVIEKVNWDQDPKPALVTKFMENGSLSGLLQSQCPRPWPLLCRLLKEVVLGMFYLHDQNPVLLHRDLKPSNVLLDPELHVKLADFGLSTFQGGSQSGTGSGEPGGTLGYLAPELFVNVNRKASTASDVYSFGILMWAVLAGREVELPTEPSLVYEAVCNRQNRPSLAELPQAGPETPGLEGLKELMQLCWSSEPKDRPSFQECLPKTDEVFQMVENNMNAAVSTVKDFLSQLRSSNRRFSIPESGQGGTEMDGFRRTIENQHSRNDVMVSEWLNKLNLEEPPSSVPKKCPSLTKRSRAQEEQVPQAWTAGTSSDSMAQPPQTPETSTFRNQMPSPTSTGTPSPGPRGNQGAERQGMNWSCRTPEPNPVTGRPLVNIYNCSGVQVGDNNYLTMQQTTALPTWGLAPSGKGRGLQHPPPVGSQEGPKDPEAWSRPQGWYNHSGK
notes: Endogenous protein in human brain sections

How the values were obtained:
[1] = target: B2; experiment: confocal co-localization in co-labeled human brain sections
Description: (§1) The tissue was then washed in water and let dry overnight. The next day the slides were cleared in xylene and coverslipped with DPX mounting solution (Sigma-Aldrich). The immunohistochemistry on the brain sections from APP/PS1 was conducted following a similar protocol as we previously detailed 49. In this case, sections were stained with an anti-A(342 specific antibody (1:200; Millipore, catalog number AB5078P) and with a neuronal marker NeuN (1:200, Millipore, catalog number MAB377), Iba1 (Wako), GFAP (Cell Signaling) and GFP (1:200, Thermo Fisher Scientific, catalog number A-11122).
(§2) Confocal microscopy and image analysis: All images were acquired at a resolution size of x=1024, y=1024, and z=1, using a 63× oil immersion objective and zoom of 1.5 using the Leica DM 2500 confocal microscope. Image fields within the x-y plane of the tissue section were randomly selected. For each image acquired, channels were split to allow separate pixel quantification in both the 561 nm and 635 nm channels. To quantify total protein in each image field, channels were split and the integrated signal density of each channel was quantified using ImageJ software. Human brain tissue sections immunostained for RIPK1, RIPK3, MLKL, and pMLKL were analyzed to measure absolute protein levels, as well as co-localization between RIPK1 and RIPK3, RIPK3 and MLKL, and RIPK1 and MLKL. […]

[2] = target: T1, Receptor Interacting Protein Kinase-1 (RIPK1) (human, UniProt Q13546 1-671); experiment: as above
T1 construct: Endogenous protein in human AD and CTL brain extracts (TBS/Triton-X100) and in human cell lysates; also called RIP1
T1 sequence (looked up): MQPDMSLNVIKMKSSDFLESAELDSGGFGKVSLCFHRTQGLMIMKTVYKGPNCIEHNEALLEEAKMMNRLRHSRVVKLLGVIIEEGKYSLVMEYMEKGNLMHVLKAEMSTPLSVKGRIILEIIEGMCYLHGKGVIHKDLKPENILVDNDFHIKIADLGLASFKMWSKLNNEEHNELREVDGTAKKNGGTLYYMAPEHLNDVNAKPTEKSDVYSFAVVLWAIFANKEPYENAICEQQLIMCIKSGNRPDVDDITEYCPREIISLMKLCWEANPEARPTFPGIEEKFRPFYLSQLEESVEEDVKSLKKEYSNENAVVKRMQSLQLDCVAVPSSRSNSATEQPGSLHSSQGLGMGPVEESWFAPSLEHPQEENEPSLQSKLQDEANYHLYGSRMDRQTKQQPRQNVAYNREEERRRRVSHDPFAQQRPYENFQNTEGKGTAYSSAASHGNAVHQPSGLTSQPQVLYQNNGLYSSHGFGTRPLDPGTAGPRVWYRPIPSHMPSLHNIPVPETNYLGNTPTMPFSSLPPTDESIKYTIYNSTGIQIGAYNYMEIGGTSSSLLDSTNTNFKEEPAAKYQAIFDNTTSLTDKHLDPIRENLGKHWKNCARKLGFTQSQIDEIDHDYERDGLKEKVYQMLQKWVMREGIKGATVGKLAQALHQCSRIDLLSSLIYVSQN
Description: as §1, §2

Q: Does B1 bind [1]?
A: Result: binds

Q: Does B2 bind [2]?
A: Result: binds
